Test results reported in article doi:10.1101/854158 (bioRxiv, 2019).

T1: FANCB (human, UniProt Q8NB91 1-859)
T1 sequence: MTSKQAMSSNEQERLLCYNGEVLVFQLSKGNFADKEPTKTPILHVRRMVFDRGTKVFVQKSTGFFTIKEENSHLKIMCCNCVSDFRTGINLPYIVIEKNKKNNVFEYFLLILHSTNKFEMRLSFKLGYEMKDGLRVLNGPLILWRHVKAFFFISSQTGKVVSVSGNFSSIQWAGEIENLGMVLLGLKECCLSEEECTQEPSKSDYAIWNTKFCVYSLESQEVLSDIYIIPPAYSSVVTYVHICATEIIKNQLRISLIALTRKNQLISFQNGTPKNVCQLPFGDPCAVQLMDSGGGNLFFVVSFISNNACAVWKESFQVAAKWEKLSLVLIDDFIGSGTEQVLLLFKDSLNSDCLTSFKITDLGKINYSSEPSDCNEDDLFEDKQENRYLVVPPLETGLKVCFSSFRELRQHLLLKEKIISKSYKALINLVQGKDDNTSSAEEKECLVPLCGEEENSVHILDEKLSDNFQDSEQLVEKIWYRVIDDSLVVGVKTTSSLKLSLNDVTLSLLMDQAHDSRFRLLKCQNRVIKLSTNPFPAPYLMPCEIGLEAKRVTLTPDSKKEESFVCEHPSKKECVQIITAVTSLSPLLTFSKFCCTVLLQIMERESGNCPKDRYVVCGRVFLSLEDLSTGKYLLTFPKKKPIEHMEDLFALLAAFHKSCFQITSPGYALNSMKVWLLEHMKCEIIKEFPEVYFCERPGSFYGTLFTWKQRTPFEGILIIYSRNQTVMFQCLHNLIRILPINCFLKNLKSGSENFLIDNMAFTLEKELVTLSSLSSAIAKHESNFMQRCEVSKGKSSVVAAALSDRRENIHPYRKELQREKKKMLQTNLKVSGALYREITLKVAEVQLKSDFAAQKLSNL

T2: FANCA (human, UniProt O15360 1-1455)
T2 sequence: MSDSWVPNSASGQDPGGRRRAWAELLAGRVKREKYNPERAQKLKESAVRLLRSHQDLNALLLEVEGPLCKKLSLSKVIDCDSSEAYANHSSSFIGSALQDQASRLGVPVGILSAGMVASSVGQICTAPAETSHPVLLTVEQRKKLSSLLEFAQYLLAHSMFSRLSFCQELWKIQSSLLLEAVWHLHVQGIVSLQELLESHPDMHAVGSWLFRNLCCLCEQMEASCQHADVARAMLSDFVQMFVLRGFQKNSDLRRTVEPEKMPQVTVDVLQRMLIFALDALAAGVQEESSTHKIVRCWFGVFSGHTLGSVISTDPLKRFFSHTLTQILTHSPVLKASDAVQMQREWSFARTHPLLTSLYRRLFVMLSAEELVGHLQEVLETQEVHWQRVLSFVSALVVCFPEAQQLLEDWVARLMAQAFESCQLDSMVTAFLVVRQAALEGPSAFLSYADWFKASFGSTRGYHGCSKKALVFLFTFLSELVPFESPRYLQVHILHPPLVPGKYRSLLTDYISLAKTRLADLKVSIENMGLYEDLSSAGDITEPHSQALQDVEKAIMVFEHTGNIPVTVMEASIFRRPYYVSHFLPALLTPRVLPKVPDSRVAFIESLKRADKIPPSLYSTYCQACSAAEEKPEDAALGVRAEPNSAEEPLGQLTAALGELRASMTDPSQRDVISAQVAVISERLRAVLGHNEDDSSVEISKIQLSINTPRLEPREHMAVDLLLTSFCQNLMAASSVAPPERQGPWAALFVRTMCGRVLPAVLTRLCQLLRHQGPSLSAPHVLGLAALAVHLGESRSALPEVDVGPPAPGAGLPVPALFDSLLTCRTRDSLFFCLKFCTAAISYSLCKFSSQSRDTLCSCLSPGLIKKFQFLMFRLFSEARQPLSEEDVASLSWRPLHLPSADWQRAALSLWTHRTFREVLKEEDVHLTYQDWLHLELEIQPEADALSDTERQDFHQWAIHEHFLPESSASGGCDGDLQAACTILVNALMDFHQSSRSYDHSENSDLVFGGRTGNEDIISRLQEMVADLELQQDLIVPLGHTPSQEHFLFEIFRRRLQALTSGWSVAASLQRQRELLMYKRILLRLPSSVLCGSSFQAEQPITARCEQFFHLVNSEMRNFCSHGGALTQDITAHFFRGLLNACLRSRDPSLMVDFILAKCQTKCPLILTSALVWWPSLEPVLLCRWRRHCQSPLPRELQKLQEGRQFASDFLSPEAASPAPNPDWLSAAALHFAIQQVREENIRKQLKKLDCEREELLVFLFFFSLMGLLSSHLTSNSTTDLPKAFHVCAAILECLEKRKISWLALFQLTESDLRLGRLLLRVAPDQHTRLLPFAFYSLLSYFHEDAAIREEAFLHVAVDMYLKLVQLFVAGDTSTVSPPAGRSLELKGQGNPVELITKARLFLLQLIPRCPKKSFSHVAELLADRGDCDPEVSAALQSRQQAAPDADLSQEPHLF

T3: FAAP100 (human, UniProt Q0VG06 1-881)
T3 sequence: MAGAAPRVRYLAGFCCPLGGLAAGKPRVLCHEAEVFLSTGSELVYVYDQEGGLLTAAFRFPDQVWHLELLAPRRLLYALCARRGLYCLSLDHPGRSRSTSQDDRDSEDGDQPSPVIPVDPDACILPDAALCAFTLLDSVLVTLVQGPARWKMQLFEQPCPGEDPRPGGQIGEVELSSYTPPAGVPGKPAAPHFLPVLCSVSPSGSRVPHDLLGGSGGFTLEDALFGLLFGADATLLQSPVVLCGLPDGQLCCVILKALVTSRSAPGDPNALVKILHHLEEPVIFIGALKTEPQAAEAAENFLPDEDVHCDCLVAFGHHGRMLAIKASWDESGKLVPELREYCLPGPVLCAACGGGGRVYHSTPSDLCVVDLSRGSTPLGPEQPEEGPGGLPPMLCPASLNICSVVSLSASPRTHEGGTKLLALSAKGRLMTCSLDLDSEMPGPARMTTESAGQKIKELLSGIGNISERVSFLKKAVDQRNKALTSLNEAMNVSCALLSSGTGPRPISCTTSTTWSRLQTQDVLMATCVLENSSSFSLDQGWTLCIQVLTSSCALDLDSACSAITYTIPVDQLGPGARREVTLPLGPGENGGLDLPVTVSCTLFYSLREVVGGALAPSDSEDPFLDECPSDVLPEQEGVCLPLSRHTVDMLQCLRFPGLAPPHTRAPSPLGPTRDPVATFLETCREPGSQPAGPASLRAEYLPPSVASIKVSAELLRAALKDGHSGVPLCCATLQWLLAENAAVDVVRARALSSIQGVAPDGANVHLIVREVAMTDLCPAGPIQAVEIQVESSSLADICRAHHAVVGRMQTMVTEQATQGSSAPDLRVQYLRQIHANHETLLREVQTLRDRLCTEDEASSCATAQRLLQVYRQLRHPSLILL

T4: FANCC (human, UniProt Q00597 1-558)
T4 sequence: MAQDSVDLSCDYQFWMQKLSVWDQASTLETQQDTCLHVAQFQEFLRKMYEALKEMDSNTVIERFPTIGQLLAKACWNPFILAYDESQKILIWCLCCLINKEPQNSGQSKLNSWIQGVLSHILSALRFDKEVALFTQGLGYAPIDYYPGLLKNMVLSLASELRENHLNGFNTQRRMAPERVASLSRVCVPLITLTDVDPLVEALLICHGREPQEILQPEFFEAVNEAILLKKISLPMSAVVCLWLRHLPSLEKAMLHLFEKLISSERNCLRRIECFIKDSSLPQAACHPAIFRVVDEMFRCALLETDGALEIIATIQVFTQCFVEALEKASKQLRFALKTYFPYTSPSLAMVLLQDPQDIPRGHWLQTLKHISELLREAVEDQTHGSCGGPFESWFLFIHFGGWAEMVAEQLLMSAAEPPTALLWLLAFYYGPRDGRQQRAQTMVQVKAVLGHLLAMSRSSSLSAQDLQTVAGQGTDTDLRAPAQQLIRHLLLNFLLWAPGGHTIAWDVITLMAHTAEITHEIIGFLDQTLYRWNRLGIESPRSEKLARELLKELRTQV

B1: FANCG (natural protein)
chain: MSRQTTSVGSSCLDLWREKNDRLVRQAKVAQNSGLTLRRQQLAQDALEGLRGLLHSLQGLPAAVPVLPLELTVTCNFIILRASLAQGFTEDQAQDIQRSLERVLETQEQQGPRLEQGLRELWDSVLRASCLLPELLSALHRLVGLQAALWLSADRLGDLALLLETLNGSQSGASKDLLLLLKTWSPPAEELDAPLTLQDAQGLKDVLLTAFAYRQGLQELITGNPDKALSSLHEAASGLCPRPVLVQVYTALGSCHRKMGNPQRALLYLVAALKEGSAWGPPLLEASRLYQQLGDTTAELESLELLVEALNVPCSSKAPQFLIEVELLLPPPDLASPLHCGTQSQTKHILASRCLQTGRAGDAAEHYLDLLALLLDSSEPRFSPPPSPPGPCMPEVFLEAAVALIQAGRAQDALTLCEELLSRTSSLLPKMSRLWEDARKGTKELPYCPLWVSATHLLQGQAWVQLGAQKVAISEFSRCLELLFRATPEEKEQGAAFNCEQGCKSDAALQQLRAAALISRGLEWVASGQDTKALQDFLLSVQMCPGNRDTYFHLLQTLKRLDRRDEATALWWRLEAQTKGSHEDALWSLPLYLESYLSWIRPSDRDAFLEEFRTSLPKSCDL
B2: FANCF (natural protein)
chain: MESLLQHLDRFSELLAVSSTTYVSTWDPATVRRALQWARYLRHIHRRFGRHGPIRTALERRLHNQWRQEGGFGRGPVPGLANFQALGHCDVLLSLRLLENRALGDAARYHLVQQLFPGPGVRDADEETLQESLARLARRRSAVHMLRFNGYRENPNLQEDSLMKTQAELLLERLQEVGKAEAERPARFLSSLWERLPQNNFLKVIAVALLQPPLSRRPQEELEPGIHKSPGEGSQVLVHWLLGNSEVFAAFCRALPAGLLTLVTSRHPALSPVYLGLLTDWGQRLHYDLQKGIWVGTESQDVPWEELHNRFQSLCQAPPPLKDKVLTALETCKAQDGDFEVPGLSIWTDLLLALRSGAFRKRQVLGLSAGLSSV

Assays:
Assay in all cases: cryo-EM structure
FANCB = target: T1, FANCB
FANCA = target: T2, FANCA
FAAP100 = target: T3, FAAP100
FANCC = target: T4, FANCC
FANCG = target: B1

| binding result (FANCB) | binding result (FANCA) | binding result (FAAP100) | binding result (FANCC) | binding result (FANCG) | Binder |
| --- | --- | --- | --- | --- | --- |
| binds | binds | binds |  |  | B1 |
|  |  |  | binds | binds | B2 |
